Reference: US20070060522A1 (ENSION, published 2007)
One block for each binder: values may come before it.

How the values were obtained:
[1] = target: T1, CD54 (ICAM-1) on A375 human melanoma cells (human, UniProt P05362 28-532); assay: inferred from peptide blocking of monocyte/tumor cell adherence
T1 construct: whole, on cells; also called intercellular adhesion molecule-1

[2] = target: αMβ2 (Mac-1; CD11b/CD18) on human peripheral blood monocytes (human, UniProt P11215 17-1152; P05107 23-769); assay: inferred from peptide blocking of monocyte/A375 adherence under flow
Procedure: Pre-treatment of tumor cells with P1 and monocytes with sFn or tumor cells with sFn and monocytes with P2 inhibited adherence to a similar level to that of sFn treatment of both cells (P>0.05 to fibrin; n=5 in each case).
Peptide Blocking of Cellular Adherence: After fluorescence labeling of each cell type, stock peptides were added to both confluent coverslips and/or 1 milliliter suspensions of monocytes (P1 and P2) and/or sFn solution (P3 and P4) for a final treatment concentration of 4 mM (4 uL added to 1 mL suspension). Cells were treated with peptides for 20 minutes at room temperature, followed directly by washing of cells (by centrifugation and resuspension—monocytes, or perfusion with RPMI 1640 for 10 min—tumor cells). For sFn peptide treatment, peptides remained in the sFn solution during incubation. Monocyte adherence to tumor cells under flow conditions was then performed as described above.

T1 sequence (P05362 28-532): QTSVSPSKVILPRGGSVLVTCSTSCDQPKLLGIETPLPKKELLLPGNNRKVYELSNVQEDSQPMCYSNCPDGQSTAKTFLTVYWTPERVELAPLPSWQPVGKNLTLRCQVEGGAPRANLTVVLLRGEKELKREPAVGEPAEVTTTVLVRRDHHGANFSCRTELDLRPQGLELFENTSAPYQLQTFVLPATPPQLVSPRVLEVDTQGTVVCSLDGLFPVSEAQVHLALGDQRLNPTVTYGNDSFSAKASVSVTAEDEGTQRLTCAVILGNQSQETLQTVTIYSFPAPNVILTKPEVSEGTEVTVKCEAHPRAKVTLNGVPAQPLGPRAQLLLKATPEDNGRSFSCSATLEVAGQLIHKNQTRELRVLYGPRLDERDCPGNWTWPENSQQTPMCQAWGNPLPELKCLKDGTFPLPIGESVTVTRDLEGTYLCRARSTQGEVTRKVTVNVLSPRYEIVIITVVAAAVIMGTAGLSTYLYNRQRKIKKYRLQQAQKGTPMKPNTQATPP

binding result [1]: binds
B1: Peptide 1 (P1), NNQKIVNLKEKVAQLEA (peptide)
peptide: NNQKIVNLKEKVAQLEA
notes: Synthetic peptide (Sigma-Genosys, 50% purity)

binding result [2]: binds
Binder: YKSMKKTTMKIIPFNRLTIF (Synthetic peptide) [Peptide 2 (P2), YKSMKKTTMKIIPFNRLTIF]
